Experimental data taken from patent publication US20220403031A1.
pEC50, pIC50, pKd: −log10 of the molar value.

Tests used:
[1] = target: cynomolgus monkey PD-L1 on 293F cells (W315-293F.cynoPro1.2A2) (cynomolgus monkey) (UniProt G7PSE7); assay: FACS on cynomolgus PD-L1 293F cells
[2] = target: cynomolgus monkey PD-L1 on 293F cells (W315-293F.cynoPro1.2A2) (cynomolgus monkey) (UniProt G7PSE7); assay: FACS affinity on cynomolgus PD-L1 cells, quantitative beads; parameters: Bmax: unit not given here
[3] = target: mouse PD-L1 on 293F cells (W315-293F.mPro1.C1) (mouse) (UniProt Q9EP73); assay: FACS affinity on mouse PD-L1 cells, quantitative beads
[4] = target: mouse PD-L1 on 293F cells (W315-293F.mPro1.C1) (mouse) (UniProt Q9EP73); assay: FACS on mouse PD-L1 293F cells
[5] = target: mouse PD-L1 on 293F cells (W315-293F.mPro1.C1) (mouse) (UniProt Q9EP73); assay: FACS competition: antibody titrated against 5 ug/mL mouse PD-1 ECD mFc on mouse PD-L1 293F cells
[6] = target: human PD-L1 on CHO-K1 cells (W315-CHO-K1.hPro1.C11) (human) (UniProt Q9NZQ7); assay: FACS affinity on human PD-L1 cells, quantitative beads
[7] = target: human PD-L1 on CHO-K1 cells (W315-CHO-K1.hPro1.C11) (human) (UniProt Q9NZQ7); assay: FACS competition: antibody titrated against 5 ug/mL human PD-1 ECD mFc on human PD-L1 CHO-K1 cells
[8] = target: human PD-L1 on CHO-K1 cells (W315-CHO-K1.hPro1.C11) (human) (UniProt Q9NZQ7); assay: FACS on human PD-L1 CHO-K1 cells
[9] = target: 4-1BB.his (Homo sapiens (Human)) (UniProt Q07011); assay: non-specific binding ELISA; secondary antibody alone on coated antigen
VEGF.his [10] = assay: as above
[11] = target: PD-1.his (Homo sapiens (Human)) (UniProt Q15116); assay: as above
[12] = target: human serum Albumin (human) (UniProt P02768); assay: as above
CD3.his [13] = assay: as above
CD147.his [14] = assay: as above
FGFR.his [15] = assay: as above
CD22.his [16] = assay: as above
Factor VIII [17] = assay: as above
CTLA4.his [18] = assay: as above
CD40 [19] = assay: as above
[20] = target: HER3.his (Homo sapiens (Human)) (UniProt P21860); assay: as above
OX40.his [21] = assay: as above
[22] = target: 4-1BB.his (Homo sapiens (Human)) (UniProt Q07011); assay: non-specific binding ELISA; antigen coated at 2 ug/mL, antibody at 10 ug/ml
VEGF.his [23] = assay: as above
[24] = target: PD-1.his (Homo sapiens (Human)) (UniProt Q15116); assay: as above
[25] = target: human serum Albumin (human) (UniProt P02768); assay: as above
CD3.his [26] = assay: as above
CD147.his [27] = assay: as above
FGFR.his [28] = assay: as above
CD22.his [29] = assay: as above
Factor VIII [30] = assay: as above
CTLA4.his [31] = assay: as above
CD40 [32] = assay: as above
[33] = target: HER3.his (Homo sapiens (Human)) (UniProt P21860); assay: as above
OX40.his [34] = assay: as above

Sequence of PD-1.his (Homo sapiens (Human)) (Q15116 25-170 limits assumed): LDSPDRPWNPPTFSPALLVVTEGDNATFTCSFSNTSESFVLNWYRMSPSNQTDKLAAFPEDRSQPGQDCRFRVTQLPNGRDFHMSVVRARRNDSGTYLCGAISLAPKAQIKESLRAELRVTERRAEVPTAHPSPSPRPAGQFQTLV
Sequence of CD40 (P25942 21-193): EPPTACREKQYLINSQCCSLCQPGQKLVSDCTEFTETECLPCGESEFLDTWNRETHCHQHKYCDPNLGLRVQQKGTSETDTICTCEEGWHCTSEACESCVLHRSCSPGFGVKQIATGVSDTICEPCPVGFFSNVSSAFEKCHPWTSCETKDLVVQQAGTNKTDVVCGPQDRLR
Sequence of human PD-L1 on CHO-K1 cells (W315-CHO-K1.hPro1.C11) (human) (Q9NZQ7 19-290): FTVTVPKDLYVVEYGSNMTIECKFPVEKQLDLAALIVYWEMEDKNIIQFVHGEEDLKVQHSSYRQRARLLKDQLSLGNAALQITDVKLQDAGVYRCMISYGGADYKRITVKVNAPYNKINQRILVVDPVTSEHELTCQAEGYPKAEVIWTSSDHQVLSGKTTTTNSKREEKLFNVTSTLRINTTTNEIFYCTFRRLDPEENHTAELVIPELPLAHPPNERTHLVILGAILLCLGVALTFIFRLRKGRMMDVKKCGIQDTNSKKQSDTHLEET
Sequence of CTLA4.his (P16410 36-161): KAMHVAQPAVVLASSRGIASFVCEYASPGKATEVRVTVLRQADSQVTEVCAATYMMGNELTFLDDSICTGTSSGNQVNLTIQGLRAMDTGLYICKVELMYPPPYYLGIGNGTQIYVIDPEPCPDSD
Sequence of OX40.his (P43489 29-214): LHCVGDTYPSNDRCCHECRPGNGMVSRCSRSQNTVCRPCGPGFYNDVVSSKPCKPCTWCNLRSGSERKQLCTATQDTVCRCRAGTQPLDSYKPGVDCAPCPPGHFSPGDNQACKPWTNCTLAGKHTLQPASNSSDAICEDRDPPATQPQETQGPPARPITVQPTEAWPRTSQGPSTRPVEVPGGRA
Sequence of cynomolgus monkey PD-L1 on 293F cells (W315-293F.cynoPro1.2A2) (cynomolgus monkey) (G7PSE7 entry or part of it): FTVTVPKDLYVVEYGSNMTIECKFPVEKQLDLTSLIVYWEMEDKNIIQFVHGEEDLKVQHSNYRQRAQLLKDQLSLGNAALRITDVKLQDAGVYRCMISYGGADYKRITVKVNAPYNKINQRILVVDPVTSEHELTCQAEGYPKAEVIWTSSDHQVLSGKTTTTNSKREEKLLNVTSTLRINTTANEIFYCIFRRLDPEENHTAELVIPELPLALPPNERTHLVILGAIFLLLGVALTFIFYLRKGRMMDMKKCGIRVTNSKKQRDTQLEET
Sequence of 4-1BB.his (Homo sapiens (Human)) (Q07011 24-186 limits assumed): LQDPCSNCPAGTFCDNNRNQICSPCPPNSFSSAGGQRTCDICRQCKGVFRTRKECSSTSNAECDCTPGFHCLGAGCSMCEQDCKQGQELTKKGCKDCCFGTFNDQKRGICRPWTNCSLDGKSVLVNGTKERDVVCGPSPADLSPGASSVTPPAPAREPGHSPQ
Sequence of mouse PD-L1 on 293F cells (W315-293F.mPro1.C1) (mouse) (Q9EP73 19-290): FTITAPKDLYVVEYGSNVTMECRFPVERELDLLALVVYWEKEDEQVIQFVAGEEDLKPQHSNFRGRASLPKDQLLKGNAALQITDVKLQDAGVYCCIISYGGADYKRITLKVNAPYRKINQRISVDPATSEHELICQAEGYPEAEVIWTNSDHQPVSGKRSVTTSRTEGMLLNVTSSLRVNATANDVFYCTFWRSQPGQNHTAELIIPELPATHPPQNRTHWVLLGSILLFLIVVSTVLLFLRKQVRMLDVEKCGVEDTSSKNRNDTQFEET

Substance | pEC50 [1] | Bmax [2] | pKd [2] | Absorbance at 450 nm [22] | Absorbance at 450 nm (VEGF.his [23]) | Absorbance at 450 nm [24] | Absorbance at 450 nm [25] | Absorbance at 450 nm (CD3.his [26]) | Absorbance at 450 nm (CD147.his [27]) | Absorbance at 450 nm (FGFR.his [28]) | Absorbance at 450 nm (CD22.his [29]) | Absorbance at 450 nm (Factor VIII [30]) | Absorbance at 450 nm (CTLA4.his [31]) | Absorbance at 450 nm (CD40 [32]) | Absorbance at 450 nm [33] | Absorbance at 450 nm (OX40.his [34]) | other results
BMK6.hIgG4 (Benchmark antibody 6, variable region of Imfinzi conjugated with human IgG4 constant region) | 8.58 | 1.6e-08 | 7.68 |  |  |  |  |  |  |  |  |  |  |  |  |  | 
BMK8.hIgG4 (Benchmark antibody 8, variable region of Tecentriq conjugated with human IgG4 constant region) | 8.66 | 8.8e-09 | 7.80 |  |  |  |  |  |  |  |  |  |  |  |  |  | Bmax [3]: 8.3e-10; pKd [3]: 8.77; pEC50 [4]: 8.83; pIC50 [5]: 8.84; Bmax [6]: 3.3e-10; pKd [6]: 9.28
BMK9.Fc(IgG1) (Benchmark antibody 9, same sequence with KN035) (Fc fusion) | 8.63 |  |  |  |  |  |  |  |  |  |  |  |  |  |  |  | pIC50 [7]: 9.10; pEC50 [8]: 9.34
Goat anti-human IgG Fc-HRP (Bethyl, A80-304P) (antibody) |  |  |  |  |  |  |  |  |  |  |  |  |  |  |  |  | Absorbance at 450 nm [9]: 0.05; Absorbance at 450 nm (VEGF.his [10]): 0.06; Absorbance at 450 nm [11]: 0.05; Absorbance at 450 nm [12]: 0.37; Absorbance at 450 nm (CD3.his [13]): 0.05; Absorbance at 450 nm (CD147.his [14]): 0.05; Absorbance at 450 nm (FGFR.his [15]): 0.13; Absorbance at 450 nm (CD22.his [16]): 0.05; Absorbance at 450 nm (Factor VIII [17]): 0.06; Absorbance at 450 nm (CTLA4.his [18]): 0.05; Absorbance at 450 nm (CD40 [19]): 0.24; Absorbance at 450 nm [20]: 0.05; Absorbance at 450 nm (OX40.his [21]): 0.05
hIgG4K Isotype control (antibody) |  |  |  | 0.07 | 0.11 | 3.29 | 0.41 | 0.07 | 0.06 | 0.13 | 0.06 | 0.15 | 0.09 | 0.25 | 0.07 | 0.06 | 
hIgG4L Isotype control (antibody) |  |  |  | 0.06 | 0.08 | 0.05 | 0.41 | 0.07 | 0.06 | 0.13 | 0.06 | 0.07 | 0.06 | 0.24 | 0.06 | 0.06 | 
